Test results from patent US20140178389A1 (AbbVie / Abbott, published 2014).

Columns and labels:
recombinant human IL-1β [1] = biological target: T1, recombinant human IL-1β (human, UniProt P01584 117-269); test: cell-based or functional assay
recombinant human IL-1α [2] = biological target: T2, recombinant human IL-1α (human, UniProt P01583 113-271); test: cell-based or functional assay
T2 sequence: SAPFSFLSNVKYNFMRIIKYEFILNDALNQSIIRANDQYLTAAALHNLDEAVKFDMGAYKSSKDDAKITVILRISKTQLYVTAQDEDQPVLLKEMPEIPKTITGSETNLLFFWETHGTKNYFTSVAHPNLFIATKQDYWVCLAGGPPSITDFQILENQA

[3] = biological target: T3, recombinant cynomolgus IL-1β (cynomolgus, UniProt P79182 117-268); test: cell-based or functional assay
T3 sequence (looked up): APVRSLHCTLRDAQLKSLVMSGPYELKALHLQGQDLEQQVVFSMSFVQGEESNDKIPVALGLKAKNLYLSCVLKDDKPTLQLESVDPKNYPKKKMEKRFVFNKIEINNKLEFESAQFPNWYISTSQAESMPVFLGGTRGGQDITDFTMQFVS

[4] = biological target: T4, recombinant cynomolgus IL-1α (cynomolgus, UniProt P79340 113-271); test: cell-based or functional assay
T4 sequence (looked up): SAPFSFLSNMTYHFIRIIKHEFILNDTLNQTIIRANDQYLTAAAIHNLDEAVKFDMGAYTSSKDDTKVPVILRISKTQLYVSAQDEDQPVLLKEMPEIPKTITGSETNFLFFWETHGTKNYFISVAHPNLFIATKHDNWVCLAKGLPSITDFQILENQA

[5] = biological target: purified native human IL-1β (human, UniProt P01584 117-269); test: cell-based or functional assay
[6] = biological target: T5, native human IL-1α present in crude supernatants (human, UniProt P01583 113-271, limits assumed); test: cell-based or functional assay
T5 sequence (looked up): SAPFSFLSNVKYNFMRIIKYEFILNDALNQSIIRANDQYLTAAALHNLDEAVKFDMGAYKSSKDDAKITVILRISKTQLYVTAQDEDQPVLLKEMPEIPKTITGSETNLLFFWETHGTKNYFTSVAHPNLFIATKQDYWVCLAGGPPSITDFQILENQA

recombinant human IL-1β [7] = biological target: T1, recombinant human IL-1β; test: SPR (BIAcore), DVD-Ig captured via goat anti-human IgG Fc
Experimental: (§1) Goat IgGs specific to human IgG Fc were covalently linked to the carboxy methyl dextran matrix on the CMS biosensor chip via free amine groups using an amine coupling kit and the immobilization wizard option in the Biacore instruments controlling software. Specifically, carboxyl groups of the dextran matrix on the chip were activated with NHS and EDC. Goat anti-human IgG Fc antibodies (25 μg/mL), diluted in 10 mM sodium acetate, pH 4.5, were injected across the activated surface. Once the level of binding response reached the desired value, unreacted groups were deactivated by injection of 1M ethanolamine. For binding of IL-1α & IL-1β to captured Ig, a 1 μg/mL concentration of Ig in HBS-EP+ was injected over the goat anti-human IgG Fc surface at a flow rate of 10 μL/min for 1 minute. The net difference in the baseline signal and the signal after the completion of the Ig injection was taken to represent the amount of bound Ig.
(§2) The potency of the 5 DVD-Igs containing affinity matured h1B12.1 domains to recombinant and native IL-1 antigens was determined using the MRC-5 bioassay as shown in Table 24. The binding kinetics of the DVD-Igs to recombinant human and cynomolgus IL-1α and IL-1β were determined using surface plasmon resonance. In some cases, the off-rate could not be determined as they reached the limit of detection of the instrument.

recombinant human IL-1α [8] = biological target: T2, recombinant human IL-1α; test: as above
Experimental: as §1, §2

[9] = biological target: T3, recombinant cynomolgus IL-1β; test: as above
Experimental: as §1, §2

[10] = biological target: T4, recombinant cynomolgus IL-1α; test: as above
Experimental: as §1, §2

recombinant human IL-1β [11] = biological target: T1, recombinant human IL-1β; test: indirect ELISA: mAb captured on goat anti-human IgG, biotinylated IL-1β titrated
Experimental: (§3) An indirect ELISA was performed to assess the relative affinity of the affinity matured h1B12.1 mAbs to a human chimeric version of the murine 1B12 mAb. An ELISA plate was coated with goat anti-human IgG (Jackson Immunoresearch cat#109-005-098) at 0.5 ug/mL overnight. The plate was blocked with 5% milk for 1 hour and washed three times with TPBS. Affinity-matured h1B12.1 antibodies and human IgG control (Sigma cat#12511) were incubated on the plate for 30 min at 0.2 μg/mL and then the plates were washed three times. A titration of biotinylated human IL-1β or biotinylated cyno IL-1β was added to the plate, starting at 10 nM and decreasing in concentration following a series of 1:3 dilutions. Binding of biotinylated IL-1β was detected with a 1:10000 dilution of peroxidase-conjugated streptavidin (Jackson Immunoresearch cat#016-030-084) and TMB substrate (Invitrogen). The data were fit in Graphpad prism to determine the EC₅₀ values.

[12] = biological target: T3, recombinant cynomolgus IL-1β; test: as above
Experimental: as §3

Row | Potency (IC50) pM, MRC-5 bioassay (recombinant human IL-1β [1]) [pM] | Potency (IC50) pM, MRC-5 bioassay (recombinant human IL-1α [2]) [pM] | Potency (IC50) pM, MRC-5 bioassay [3] [pM] | Potency (IC50) pM, MRC-5 bioassay [4] [pM] | Potency (IC50) pM, MRC-5 bioassay [5] [pM] | Potency (IC50) pM, MRC-5 bioassay [6] [pM] | Kd (recombinant human IL-1β [7]) [pM] | koff (recombinant human IL-1β [7]) [s⁻¹] | kon (recombinant human IL-1β [7]) [M⁻¹ s⁻¹] | Kd (recombinant human IL-1α [8]) [nM] | koff (recombinant human IL-1α [8]) [s⁻¹] | kon (recombinant human IL-1α [8]) [M⁻¹ s⁻¹] | Kd [9] [pM] | koff [9] [s⁻¹] | kon [9] [M⁻¹ s⁻¹] | Kd [10] [nM] | koff [10] [s⁻¹] | kon [10] [M⁻¹ s⁻¹] | EC50 (recombinant human IL-1β [11]) [nM] | EC50 [12] [nM] | Binder
1 | 51.2 | 44.3 | 6.56 | 1920 | 4.27 | 57.6 | 0.5 | 1.3e-05 | 2.6e+07 | 0.01 | 1.6e-06 | 150000 | 1 | 1.3e-05 | 1.3e+07 | 2.4 | 0.00027 | 110000 |  |  | DVD5-h1B12.A3-SS-X3, human anti-IL-1α/β DVD IgG1/k mut (234,235) (bispecific antibody, also called PR-1358321) heavy: not shown light: DIQMTQSPSSLSASVGDRVTITCQASTDIDDDLNWYQQKPGKAPKLLISLGSTLRPGVPSRFSGSGSGTDFTFTISSLQPEDFATYYCLQSDRLPLTFGQGTKLEIKRTVAAPDIQMTQSPSSVSASVGDRVTITCRASQGISSWLAWYQQKPGKAPKLLIYEASNLETGVPSRFSGSGSGSDFTLTISSLQPEDFATYYCQQTSSFLLSFGGGTKVEHKRTVAAPSVFIFPPSDEQLKSGTASVVCLLNNFYPREAKVQWKVDNALQSGNSQESVTEQDSKDSTYSLSSTLTLSKADYEKHKVYACEVTHQGLSSPVTKSFNRGEC
2 |  |  |  |  |  |  |  |  |  |  |  |  |  |  |  |  |  |  | 0.033 | 0.032 | h1B12-AM3, affinity-matured h1B12.1 IgG1/k mut (234,235) mAb (scFv clone 34) (antibody, V domains shown, also called PR-1354592) VH: EVQLQESGPGLVKPSETLSLTCTVSGFSLSDYGVSWIRQPPGKGLEWIGLIWGSGDTYYNSPLKSRLTISKDTSKSQVSLKLSSVTAADTAVYYCAKQTNLWAYDLYSMDYWGQGTLVTVSS VL: DIQMTQSPSSLSASVGDRVTITCQASQDIDDDLNWYQQKPGKAPKLLISLASILRPGVPSRFSGSGSGTDFTFTISSLQPEDFATYYCLQSDSFPLTFGQGTKLEIKR
3 |  |  |  |  |  |  |  |  |  |  |  |  |  |  |  |  |  |  | 0.031 | 0.025 | h1B12-AM4, affinity-matured h1B12.1 IgG1/k mut (234,235) mAb (scFv clone A1) (antibody, V domains shown, also called PR-1354594) VH: EVQLQESGPGLVKPSETLSLTCTVSGFSLRDYGVSWIRQPPGKGLEWLGLIWGSGDTYYNSPLKSRLTISKDTSKSQVSLKLSSVTAADTAVYYCAKQTNIWGYDLYGMDYWGQGTLVTVSS VL: DIQMTQSPSSLSASVGDRVTITCQASQDIDMDLNWYQQKPGKAPKLLISQANTLPPGVPSRFSGSGSGTDFTFTISSLQPEDFATYYCLQSDWLPLTFGQGTKLEIKR
4 |  |  |  |  |  |  |  |  |  |  |  |  |  |  |  |  |  |  | 0.026 | 0.034 | h1B12-AM2, affinity-matured h1B12.1 IgG1/k mut (234,235) mAb (scFv clone 21) (antibody, V domains shown, also called PR-1354591) VH: EVQLQESGPGLVKPSETLSLTCTVSGFSLSEFGVSWIRQPPGKGLEWIGLIWGGGDTYYNSPLKSRLTISKDNSKSQVSLKLSSVTAADTAVYYCAKQRNLWAYDLYGMDYWGQGTLVTVSS VL: DIQMTQSPSSLSASVGDRVTITCQTSQDIDMDLNWYQQKPGKAPKLLISQGSTLWPGVPSRFSGSGSGTDFTFTISSLQPEDFATYYCLQTDSFPLTFGQGTKLEIKR

Continued, binder first:

Row | Binder | Potency (IC50) pM, MRC-5 bioassay (recombinant human IL-1β [1]) [pM] | Potency (IC50) pM, MRC-5 bioassay (recombinant human IL-1α [2]) [pM] | Potency (IC50) pM, MRC-5 bioassay [3] [pM] | Potency (IC50) pM, MRC-5 bioassay [4] [pM] | Potency (IC50) pM, MRC-5 bioassay [5] [pM] | Potency (IC50) pM, MRC-5 bioassay [6] [pM] | Kd (recombinant human IL-1β [7]) [pM] | koff (recombinant human IL-1β [7]) [s⁻¹] | kon (recombinant human IL-1β [7]) [M⁻¹ s⁻¹] | Kd (recombinant human IL-1α [8]) [nM] | koff (recombinant human IL-1α [8]) [s⁻¹] | kon (recombinant human IL-1α [8]) [M⁻¹ s⁻¹] | Kd [9] [pM] | koff [9] [s⁻¹] | kon [9] [M⁻¹ s⁻¹] | Kd [10] [nM] | koff [10] [s⁻¹] | kon [10] [M⁻¹ s⁻¹] | EC50 (recombinant human IL-1β [11]) [nM] | EC50 [12] [nM]
5 | DVD1-h1B12.13-SS-X3, human anti-IL-1α/β DVD IgG1/k mut (234,235) (bispecific antibody, also called PR-1358316) heavy: not shown light: DIQMTQSPSSLSASVGDRVTITCQTSTDIDDDLNWYQQKPGKAPKLLISLASTLRPGVPSRFSGSGSGTDFTFTISSLQPEDFATYYCLQSDRLPLTFGQGTKLEIKRTVAAPDIQMTQSPSSVSASVGDRVTITCRASQGISSWLAWYQQKPGKAPKLLIYEASNLETGVPSRFSGSGSGSDFTLTISSLQPEDFATYYCQQTSSFLLSFGGGTKVEHKRTVAAPSVFIFPPSDEQLKSGTASVVCLLNNFYPREAKVQWKVDNALQSGNSQESVTEQDSKDSTYSLSSTLTLSKADYEKHKVYACEVTHQGLSSPVTKSFNRGEC | 55.9 | 45.4 | 3.62 | 2440 | 1.64 | 24.4 | 0.22 | 5.1e-06 | 2.3e+07 | 0.021 | 2.9e-06 | 140000 | 1.5 | 1.7e-05 | 1.2e+07 | 2.3 | 0.00023 | 100000 |  | 
6 | DVD4-h1B12.A1-SS-X3, human anti-IL-1α/β DVD IgG1/k mut (234,235) (bispecific antibody, also called PR-1358319) heavy: not shown light: DIQMTQSPSSLSASVGDRVTITCQASQDIDMDLNWYQQKPGKAPKLLISQANTLPPGVPSRFSGSGSGTDFTFTISSLQPEDFATYYCLQSDWLPLTFGQGTKLEIKRTVAAPDIQMTQSPSSVSASVGDRVTITCRASQGISSWLAWYQQKPGKAPKLLIYEASNLETGVPSRFSGSGSGSDFTLTISSLQPEDFATYYCQQTSSFLLSFGGGTKVEHKRTVAAPSVFIFPPSDEQLKSGTASVVCLLNNFYPREAKVQWKVDNALQSGNSQESVTEQDSKDSTYSLSSTLTLSKADYEKHKVYACEVTHQGLSSPVTKSFNRGEC | 58.6 | 38.6 | 4.02 | 2580 | 2.46 | 50.9 | ≤ 0.98 | ≤ 1e-05 | 1.1e+07 | 0.2 | 3.6e-05 | 180000 | 1.8 | 9.6e-06 | 5.3e+06 | 2.6 | 0.00035 | 130000 |  | 
7 | DVD2-h1B12.21-SS-X3, human anti-IL-1α/β DVD IgG1/k mut (234,235) (bispecific antibody, also called PR-1358317) heavy: not shown light: DIQMTQSPSSLSASVGDRVTITCQTSQDIDMDLNWYQQKPGKAPKLLISQGSTLWPGVPSRFSGSGSGTDFTFTISSLQPEDFATYYCLQTDSFPLTFGQGTKLEIKRTVAAPDIQMTQSPSSVSASVGDRVTITCRASQGISSWLAWYQQKPGKAPKLLIYEASNLETGVPSRFSGSGSGSDFTLTISSLQPEDFATYYCQQTSSFLLSFGGGTKVEHKRTVAAPSVFIFPPSDEQLKSGTASVVCLLNNFYPREAKVQWKVDNALQSGNSQESVTEQDSKDSTYSLSSTLTLSKADYEKHKVYACEVTHQGLSSPVTKSFNRGEC | 48.6 | 42.8 | 1.86 | 1640 | 1.91 | 72 | 0.2 | 5.1e-06 | 2.5e+07 | 0.12 | 1.6e-05 | 140000 | 1.6 | 1.8e-05 | 1.1e+07 | 2 | 0.00021 | 100000 |  | 
8 | h1B12-AM1, affinity-matured h1B12.1 IgG1/k mut (234,235) mAb (scFv clone 13) (antibody, V domains shown, also called PR-1354589) VH: EVQLQESGPGLVKPSETLSLTCTVSGFSLSDYGVSWIRQPPGKGLEWIGLIWGSGDTYYNSPLKSRLTISKDNSKSQVSLKLSSVTAADTAVYYCAKQTNIWAYDLYSMDYWGQGTLVTVSS VL: DIQMTQSPSSLSASVGDRVTITCQTSTDIDDDLNWYQQKPGKAPKLLISLASTLRPGVPSRFSGSGSGTDFTFTISSLQPEDFATYYCLQSDRLPLTFGQGTKLEIKR |  |  |  |  |  |  |  |  |  |  |  |  |  |  |  |  |  |  | 0.031 | 0.026
